Apoptosis (annexin V / 7-AAD) after 3 days with A1847 data for 2 molecules are collected here from patent US12325756.

Experiment [1] addresses human alpha-folate receptor on tumor cells (C30-F, C30M/F, A1847) (human), P15328. The experiment in a line: cell-based or functional assay.
The target of experiment [2] is human mesothelin on tumor cells (C30-M, C30M/F, A1847) (human), Q13421. The experiment in a line: cell-based or functional assay.
Chain of human mesothelin on tumor cells (C30-M, C30M/F, A1847) (human), Q13421 (Q13421 other isoform, or with tags, fused parts or gaps C30M C30M): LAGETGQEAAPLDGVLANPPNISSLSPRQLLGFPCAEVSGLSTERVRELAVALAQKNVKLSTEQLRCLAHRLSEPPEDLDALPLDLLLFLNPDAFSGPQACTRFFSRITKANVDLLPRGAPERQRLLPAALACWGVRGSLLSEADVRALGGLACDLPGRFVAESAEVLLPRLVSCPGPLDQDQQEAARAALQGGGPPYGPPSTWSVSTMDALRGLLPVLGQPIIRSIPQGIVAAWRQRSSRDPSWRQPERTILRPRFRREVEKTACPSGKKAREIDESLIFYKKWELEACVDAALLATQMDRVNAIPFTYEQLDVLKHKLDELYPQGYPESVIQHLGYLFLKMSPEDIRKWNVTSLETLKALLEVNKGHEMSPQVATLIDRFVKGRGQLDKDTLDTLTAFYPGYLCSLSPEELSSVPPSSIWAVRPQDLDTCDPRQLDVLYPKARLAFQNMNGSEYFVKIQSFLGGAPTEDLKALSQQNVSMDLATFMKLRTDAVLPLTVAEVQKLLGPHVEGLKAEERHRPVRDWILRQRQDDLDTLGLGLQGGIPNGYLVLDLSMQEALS

Chain of human alpha-folate receptor on tumor cells (C30-F, C30M/F, A1847) (human), P15328 (P15328 25-234, stated change not applied): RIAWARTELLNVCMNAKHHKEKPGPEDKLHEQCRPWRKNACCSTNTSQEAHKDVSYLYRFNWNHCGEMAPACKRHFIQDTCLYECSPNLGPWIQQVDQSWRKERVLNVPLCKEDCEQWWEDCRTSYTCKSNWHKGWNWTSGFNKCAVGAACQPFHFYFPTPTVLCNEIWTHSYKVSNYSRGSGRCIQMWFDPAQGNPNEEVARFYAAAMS

B1: MOV19-28 (F-28) costimulatory-only anti-aFR chimeric antigen receptor (MOv-19 scFv - CD8a hinge - CD28 transmembrane - CD28 intracellular domain) (protein)
chain: GSSRAAQPAMAQVQLQQSGAELVKPGASVKISCKASGYSFTGYFMNWVKQSHGKSLEWIGRIHPYDGDTFYNQNFKDKATLTVDKSSNTAHMELLSLTSEDFAVYYCTRYDGSRAMDYWGQGTTVTVSSGGGGSGGGGSGGGGSDIELTQSPASLAVSLGQRAIISCKASQSVSFAGTSLMHWYHQKPGQQPKLLIYRASNLEAGVPTRFSGSGSKTDFTLNIHPVEEEDAATYYCQQSREYPYTFGGGTKLEIKRAAASTTTPAPRPPTPAPTIASQPLSLRPEACRPAAGGAVHTRGLDFACDFWVLVVVGGVLACYSLLVTVAFIIFWVRSKRSRLLHSDYMNMTPRRPGPTRKHYQPYAPPRDFAAYRS
In experiment [1], B1 showed an apoptosis (annexin V / 7-AAD) after 3 days with A1847 of 0.5 to 1%.

B2: P4-z anti-mesothelin chimeric antigen receptor (P4 scFv - CD8a hinge and transmembrane region - CD3z) (protein)
chain: GSQVQLQQSGPGLVTPSQTLSLTCAISGDSVSSNSATWNWIRQSPSRGLEWLGRTYYRSKWYNDYAVSVKSRMSINPDTSKNQFSLQLNSVTPEDTAVYYCARGMMTYYYGMDVWGQGTTVTVSSGILGSGGGGSGGGGSGGGGSQPVLTQSSSLSASPGASASLTCTLRSGINVGPYRIYWYQQKPGSPPQYLLNYKSDSDKQQGSGVPSRFSGSKDASANAGVLLISGLRSEDEADYYCMIWHSSAAVFGGGTQLTVLSASTTTPAPRPPTPAPTIASRPLSLRPEACRPAAGGAVHTRGLDFACDIYIWAPLAGTCGVLLLSLVITLYCRVKFSRSADAPAYQQGQNQLYNELNLGRREEYDVLDKRRGRDPEMGGKPRRKNPQEGLYNELQKDKMAEAYSEIGMKGERRRGKGHDGLYQGLSTATKDTYDALHMQALPPR
Turning to B2, the apoptosis (annexin V / 7-AAD) after 3 days with A1847 in experiment [2] turned out to be 34%.
